Laboratory results taken from patent publication US20120178694A1 (University of Pennsylvania, published 2012).
Blank lines part the entries; values can stand above or below the binder they belong to. Bridge positions count the residues as written; N and C are the ends. Square brackets hold non-standard residues; d marks the D form. Trp(1-Me) = Cn1cc(C[C@H](N)C(=O)O)c2ccccc21; NMeI = CC[C@H](C)[C@H](NC)C(=O)O; Nle = CCCC[C@H](N)C(=O)O; Sar = CNCC(=O)O

Assays:
[1] = molecular target: T1, C3 purified from fresh human plasma (human, UniProt P01024 23-1663); test: cell-based or functional assay
T1 sequence (P01024 23-1663): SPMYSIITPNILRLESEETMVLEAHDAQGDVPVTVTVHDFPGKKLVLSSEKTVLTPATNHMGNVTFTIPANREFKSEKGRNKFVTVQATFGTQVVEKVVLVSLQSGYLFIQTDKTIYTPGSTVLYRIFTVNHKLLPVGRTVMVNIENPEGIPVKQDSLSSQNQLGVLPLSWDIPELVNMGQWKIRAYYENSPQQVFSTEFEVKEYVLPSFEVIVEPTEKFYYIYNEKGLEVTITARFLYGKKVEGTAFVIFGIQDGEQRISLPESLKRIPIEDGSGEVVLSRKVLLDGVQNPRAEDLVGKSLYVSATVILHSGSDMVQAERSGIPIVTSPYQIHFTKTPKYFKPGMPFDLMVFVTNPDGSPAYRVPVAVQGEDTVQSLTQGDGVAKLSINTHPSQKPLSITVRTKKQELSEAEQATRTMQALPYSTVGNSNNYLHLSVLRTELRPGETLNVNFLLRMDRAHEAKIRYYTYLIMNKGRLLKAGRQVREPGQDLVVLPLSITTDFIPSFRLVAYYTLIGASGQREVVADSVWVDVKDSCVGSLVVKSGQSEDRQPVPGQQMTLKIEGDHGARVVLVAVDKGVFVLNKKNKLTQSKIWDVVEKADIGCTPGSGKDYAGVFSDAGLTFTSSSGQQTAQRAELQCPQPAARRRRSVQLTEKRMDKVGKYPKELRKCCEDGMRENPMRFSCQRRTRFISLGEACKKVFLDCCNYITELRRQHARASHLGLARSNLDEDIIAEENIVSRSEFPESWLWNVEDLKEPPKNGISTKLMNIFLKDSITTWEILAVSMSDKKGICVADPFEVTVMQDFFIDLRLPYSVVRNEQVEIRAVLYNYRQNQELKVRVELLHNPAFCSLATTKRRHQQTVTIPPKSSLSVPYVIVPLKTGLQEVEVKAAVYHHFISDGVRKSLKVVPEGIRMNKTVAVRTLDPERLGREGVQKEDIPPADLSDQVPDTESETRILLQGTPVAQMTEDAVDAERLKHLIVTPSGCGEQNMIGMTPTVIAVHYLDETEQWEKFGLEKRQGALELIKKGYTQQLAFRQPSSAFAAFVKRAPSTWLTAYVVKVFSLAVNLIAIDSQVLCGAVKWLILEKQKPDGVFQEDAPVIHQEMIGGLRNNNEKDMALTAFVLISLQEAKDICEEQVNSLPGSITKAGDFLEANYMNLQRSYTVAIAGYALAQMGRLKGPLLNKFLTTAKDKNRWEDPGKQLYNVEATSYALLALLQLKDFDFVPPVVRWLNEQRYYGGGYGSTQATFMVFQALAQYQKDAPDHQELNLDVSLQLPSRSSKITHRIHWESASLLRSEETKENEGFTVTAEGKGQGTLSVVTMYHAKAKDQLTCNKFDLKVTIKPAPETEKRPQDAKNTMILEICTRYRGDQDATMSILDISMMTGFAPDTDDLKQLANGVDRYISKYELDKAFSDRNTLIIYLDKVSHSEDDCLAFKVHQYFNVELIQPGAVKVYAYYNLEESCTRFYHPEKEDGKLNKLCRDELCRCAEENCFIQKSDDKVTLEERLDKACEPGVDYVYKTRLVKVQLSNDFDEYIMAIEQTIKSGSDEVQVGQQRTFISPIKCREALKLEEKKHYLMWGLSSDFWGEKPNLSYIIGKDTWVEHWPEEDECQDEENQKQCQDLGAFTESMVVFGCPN

[2] = molecular target: T1, C3 purified from fresh human plasma; test: cell-based or functional assay; remark: listed apart in the source
biotinylated C3b [3] = molecular target: biotinylated C3b (UniProt P01024); test: SPR, Biacore 3000; biotinylated C3b on streptavidin chip, peptide injected; 1:1 fit
[4] = molecular target: T1, C3 purified from fresh human plasma; test: cell-based or functional assay; remark: listed apart in the source
biotinylated C3b [5] = molecular target: biotinylated C3b (UniProt P01024); test: SPR on immobilised C3b; ratio relative to peptide 14
[6] = molecular target: T1, C3 purified from fresh human plasma; test: ITC with C3; relative to peptide 14
Experimental: (§1) ITC analysis. All ITC experiments were performed with the Microcal VP-ITC calorimeter (Microcal Inc., Northampton, Mass.), using protein concentrations of 1.8-5 μM C3 in the cell and peptide concentrations of 40-100 μM of individual compstatin analogs in the syringe. All titrations were performed in PBS (10 mM phosphate buffer with 150 mM NaCl, pH 7.4) at 25° C. using multiple peptide injections of 2-7 μL each. The raw isotherms were corrected for the heats of dilution by subtracting the isotherms representing peptide injections into the buffer. The resulting isotherms were fitted to a single site of sites models using Origin 7.0 software, and the model that produced the lowest χ² value was deemed to be appropriate for the respective data set. The Gibbs free energy was calculated as ΔG=ΔH−TΔS. Each experiment was repeated at least twice.
(§2) Characterization of binding thermodynamics.

[7] = molecular target: T1, C3 purified from fresh human plasma; test: ITC; peptide titrated into C3, PBS, 25 C
Experimental: as §1, §2

[8] = molecular target: T1, C3 purified from fresh human plasma; test: cell-based or functional assay; remark: listed apart in the source

rP, relative potency compared to peptide 14 [1]: 1.9 fold
IC50, inhibition of classical pathway complement activation, ELISA [2]: 108 nM
Kd (biotinylated C3b [3]): 4.6 nM
koff (biotinylated C3b [3]): 0.006 s⁻¹
kon (biotinylated C3b [3]): 1.3e+06 M⁻¹ s⁻¹
Fold change in activity (IC50) relative to SEQ ID NO:4 [4]: 1.91 fold
rKD SPR (biotinylated C3b [5]): 2.6 fold
rka (biotinylated C3b [5]): 1.3 fold
rkd (biotinylated C3b [5]): 1.9 fold
B1: Ac-Ic[CV(1-MeW)QDW(N-MeG)AHRC]L-NH2 (peptide)
peptide: Ac-ICV[Trp(1-Me)]QDW[Sar]AHRCL-NH2
modifications: disulfide 2-12
SMILES: CC[C@H](C)[C@H](NC(C)=O)C(=O)N[C@H]1CSSC[C@@H](C(=O)N[C@@H](CC(C)C)C(N)=O)NC(=O)[C@H](CCCNC(=N)N)NC(=O)[C@H](Cc2c[nH]cn2)NC(=O)[C@H](C)NC(=O)CN(C)C(=O)[C@H](Cc2c[nH]c3ccccc23)NC(=O)[C@H](CC(=O)O)NC(=O)[C@H](CCC(N)=O)NC(=O)[C@H](Cc2cn(C)c3ccccc23)NC(=O)[C@H](C(C)C)NC1=O

-TΔΔS [6]: -4.1 kcal/mol
rKD ITC [6]: 2.4 fold
ΔΔG [6]: -0.5 kcal/mol
ΔΔH [6]: 3.5 kcal/mol
rP, relative potency compared to peptide 14 [1]: 2.2 fold
IC50, inhibition of classical pathway complement activation, ELISA [2]: 92 nM
IC50 (nM, CP), inhibition of classical pathway complement activation, ELISA, human serum [8]: 92 nM
IC50 fold change relative to peptide 17 [8]: 1 fold
Kd (biotinylated C3b [3]): 4.4 nM
koff (biotinylated C3b [3]): 0.0066 s⁻¹
kon (biotinylated C3b [3]): 1.5e+06 M⁻¹ s⁻¹
Fold change in activity (IC50) relative to SEQ ID NO:4 [4]: 2.24 fold
rKD SPR (biotinylated C3b [5]): 2.7 fold
rka (biotinylated C3b [5]): 1.5 fold
rkd (biotinylated C3b [5]): 1.7 fold
-TΔS [7]: 2.9 kcal/mol
ΔG [7]: -11.2 kcal/mol
ΔH [7]: -14.1 kcal/mol
B3: Ac-Ile-c[Cys-Val-Trp(Me)-Gln-Asp-Trp-Sar-Ala-His-Arg-Cys]-Ile-NH2 (peptide)
peptide: Ac-ICV[Trp(1-Me)]QDW[Sar]AHRCI-NH2
modifications: disulfide 2-12
SMILES: CC[C@H](C)[C@H](NC(=O)[C@@H]1CSSC[C@H](NC(=O)[C@@H](NC(C)=O)[C@@H](C)CC)C(=O)N[C@@H](C(C)C)C(=O)N[C@@H](Cc2cn(C)c3ccccc23)C(=O)N[C@@H](CCC(N)=O)C(=O)N[C@@H](CC(=O)O)C(=O)N[C@@H](Cc2c[nH]c3ccccc23)C(=O)N(C)CC(=O)N[C@@H](C)C(=O)N[C@@H](Cc2c[nH]cn2)C(=O)N[C@@H](CCCNC(=N)N)C(=O)N1)C(N)=O
notes: Sar^8, Ile^13; also called peptide 17; Ac-Ic[CV(1-MeW)QDW(N-MeG)AHRC]I-NH2

Second part, the binder before the results:

B2: Ac-Ic[CV(1-MeW)QDW(N-MeG)AHRC](N-MeI)-NH2 (peptide)
peptide: Ac-ICV[Trp(1-Me)]QDW[Sar]AHRC[NMeI]-NH2
modifications: disulfide 2-12
SMILES: CC[C@H](C)[C@H](NC(C)=O)C(=O)N[C@H]1CSSC[C@@H](C(=O)N(C)[C@H](C(N)=O)[C@@H](C)CC)NC(=O)[C@H](CCCNC(=N)N)NC(=O)[C@H](Cc2c[nH]cn2)NC(=O)[C@H](C)NC(=O)CN(C)C(=O)[C@H](Cc2c[nH]c3ccccc23)NC(=O)[C@H](CC(=O)O)NC(=O)[C@H](CCC(N)=O)NC(=O)[C@H](Cc2cn(C)c3ccccc23)NC(=O)[C@H](C(C)C)NC1=O
notes: Sar^8, (NMe)Ile^13; also called peptide 21; analog 21
-TΔΔS [6]: -1.3 kcal/mol
rKD ITC [6]: 3.3 fold
ΔΔG [6]: -0.7 kcal/mol
ΔΔH [6]: 0.5 kcal/mol
rP, relative potency compared to peptide 14 [1]: 3.3 fold
IC50, inhibition of classical pathway complement activation, ELISA [2]: 62 nM
Kd (biotinylated C3b [3]): 2.3 nM
koff (biotinylated C3b [3]): 0.0035 s⁻¹
kon (biotinylated C3b [3]): 1.5e+06 M⁻¹ s⁻¹
Fold change in activity (IC50) relative to SEQ ID NO:4 [4]: 3.32 fold
rKD SPR (biotinylated C3b [5]): 5.2 fold
rka (biotinylated C3b [5]): 1.5 fold
rkd (biotinylated C3b [5]): 3.2 fold
-TΔS [7]: 5.7 kcal/mol
ΔG [7]: -11.4 kcal/mol
ΔH [7]: -17.1 kcal/mol

B4: Ac-Ic[CV(1-MeW)QDW(N-MeG)AHRC](Nle)-NH2 (peptide)
peptide: Ac-ICV[Trp(1-Me)]QDW[Sar]AHRC[Nle]-NH2
modifications: disulfide 2-12
SMILES: CCCC[C@H](NC(=O)[C@@H]1CSSC[C@H](NC(=O)[C@@H](NC(C)=O)[C@@H](C)CC)C(=O)N[C@@H](C(C)C)C(=O)N[C@@H](Cc2cn(C)c3ccccc23)C(=O)N[C@@H](CCC(N)=O)C(=O)N[C@@H](CC(=O)O)C(=O)N[C@@H](Cc2c[nH]c3ccccc23)C(=O)N(C)CC(=O)N[C@@H](C)C(=O)N[C@@H](Cc2c[nH]cn2)C(=O)N[C@@H](CCCNC(=N)N)C(=O)N1)C(N)=O
rP, relative potency compared to peptide 14 [1]: 1.9 fold
IC50, inhibition of classical pathway complement activation, ELISA [2]: 109 nM
Kd (biotinylated C3b [3]): 4.4 nM
koff (biotinylated C3b [3]): 0.0066 s⁻¹
kon (biotinylated C3b [3]): 1.5e+06 M⁻¹ s⁻¹
Fold change in activity (IC50) relative to SEQ ID NO:4 [4]: 1.9 fold
rKD SPR (biotinylated C3b [5]): 2.7 fold
rka (biotinylated C3b [5]): 1.5 fold
rkd (biotinylated C3b [5]): 1.7 fold
